Test results published in patent US20250340636A1, “ANTIBODIES TARGETING L1CAM AND USES THEREOF” (MEMORIAL SLOAN-KETTERING CANCER CENTER, priority 2023, published 2025).

Tests used:
[1] = target: T1, HEK293FT cells transiently transfected with mouse L1CAM (Mus musculus, UniProt P11627); assay: Flow cytometry binding to HEK293FT cells transiently transfected with mouse L1CAM
T1 construct: expressed in transfected cells; host or cells: HEK293FT (transient)
Method: Hybridoma Screening. Binding to human L1CAM protein was tested by ELISA and to a HEK293T cell line overexpressing human L1CAM by flow cytometry. […] Cross-reactivity to cynomolgus L1CAM was not assessed at this point, as it is >99% homologous to human L1CAM. […] The antibodies were tested for binding to MDA-MB-231 cells, a breast cancer cell line that endogenously expresses L1CAM, followed by analysis of their internalization efficacy in MDA-MB-231 cells.
Binding Analysis. […] Dissociation constants (KD) for binding to soluble human and cynomolgus monkey L1CAM-His were determined using biolayer interferometry (BLI). In addition, EC50 values for binding to cell-bound L1CAM were established by flow cytometry using HEK293T/FT cells overexpressing human or mouse L1CAM, MCF-7 cells, and MDA-MB-231 cells. In addition, the epitope regions of the mAbs were determined by BLI interaction analysis with L1CAM subdomains (Ig and FN) expressed individually, and by a BLI competition experiment to identify epitope bins.
The binding curves for each antibody and cell line normalized to secondary antibody only staining (MFI ratio) are shown in FIGS. 14A-14C. EC50 values were determined by non-linear regression (Table 70). […] It is possible that differences in the conformation and oligomerization of L1CAM, depending on the surface expression level, contributed to the binding pattern. […]

[2] = target: T2, recombinant L1CAM-Fc fusion protein (Homo sapiens, UniProt P32004); assay: BLI binding of 76H12 Fabs to recombinant L1CAM-Fc; details: L1CAM-Fc on AHC biosensors, Fab 3-200 nM, 1:1 model
T2 construct: purchased R&D Systems; host or cells: mammalian cells
Excerpt: A total of 11 humanized 76H12 Fab variants (Fabs 2-12) were generated in addition to a chimeric 76H12 Fab (Fab 1) containing the parental murine VH and VL sequences. The chimeric Fab served as the benchmark for comparative assessment of humanized Fab variants. Humanized Fabs were first assessed by flow cytometry for binding to 293T cells engineered to overexpress L1CAM (FIG. 32A). All humanized variants bound to the L1CAM overexpressing cells, with most binding comparably to the chimeric 76H12 Fab. […] Here, recombinant L1CAM-Fc fusion protein was immobilized onto anti-Human IgG Fc Capture (AHC) biosensors and binding of Fabs was measured kinetically over a 3-200 nM concentration range. Kinetic data were fitted to a 1:1 binding model to compute association (kon) and dissociation (koff) rate constants, in addition to equilibrium dissociation constants (KD) as shown in Table 87. […] From these, Fab 3 represents the preferred humanized variant given higher identity to human germline IGHV1-46 and IGKV1-39 sequences resulting from fewer human-to-murine framework back mutations.

T2 sequence (P32004 20-1120): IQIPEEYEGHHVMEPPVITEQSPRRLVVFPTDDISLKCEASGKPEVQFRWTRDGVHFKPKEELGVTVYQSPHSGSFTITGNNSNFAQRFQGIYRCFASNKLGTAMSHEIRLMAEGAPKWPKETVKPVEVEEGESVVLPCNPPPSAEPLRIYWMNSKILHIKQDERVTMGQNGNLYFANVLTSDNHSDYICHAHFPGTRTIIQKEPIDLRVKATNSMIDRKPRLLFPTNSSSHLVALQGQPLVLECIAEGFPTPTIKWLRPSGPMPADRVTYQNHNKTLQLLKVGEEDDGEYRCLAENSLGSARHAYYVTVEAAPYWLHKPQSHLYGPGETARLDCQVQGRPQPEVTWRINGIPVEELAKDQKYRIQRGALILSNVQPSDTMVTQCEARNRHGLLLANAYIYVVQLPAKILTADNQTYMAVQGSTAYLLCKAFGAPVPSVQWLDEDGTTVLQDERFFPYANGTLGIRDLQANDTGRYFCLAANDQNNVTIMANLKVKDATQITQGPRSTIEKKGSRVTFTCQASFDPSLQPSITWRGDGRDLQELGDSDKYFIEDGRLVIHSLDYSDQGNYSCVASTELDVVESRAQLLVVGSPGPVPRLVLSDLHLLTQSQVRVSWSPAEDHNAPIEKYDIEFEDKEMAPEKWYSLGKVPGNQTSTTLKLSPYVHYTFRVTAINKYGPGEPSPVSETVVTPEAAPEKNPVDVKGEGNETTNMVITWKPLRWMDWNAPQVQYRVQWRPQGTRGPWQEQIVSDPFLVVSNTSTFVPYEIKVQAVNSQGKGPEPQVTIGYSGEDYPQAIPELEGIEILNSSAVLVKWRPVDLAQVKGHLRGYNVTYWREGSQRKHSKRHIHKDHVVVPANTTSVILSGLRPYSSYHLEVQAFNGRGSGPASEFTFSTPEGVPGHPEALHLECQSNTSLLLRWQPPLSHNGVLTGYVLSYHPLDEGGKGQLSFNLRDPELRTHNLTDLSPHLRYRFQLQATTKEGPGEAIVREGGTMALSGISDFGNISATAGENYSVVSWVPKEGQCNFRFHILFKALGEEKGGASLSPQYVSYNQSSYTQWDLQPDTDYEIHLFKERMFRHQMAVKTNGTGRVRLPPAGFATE
T1 sequence (P11627 20-1260): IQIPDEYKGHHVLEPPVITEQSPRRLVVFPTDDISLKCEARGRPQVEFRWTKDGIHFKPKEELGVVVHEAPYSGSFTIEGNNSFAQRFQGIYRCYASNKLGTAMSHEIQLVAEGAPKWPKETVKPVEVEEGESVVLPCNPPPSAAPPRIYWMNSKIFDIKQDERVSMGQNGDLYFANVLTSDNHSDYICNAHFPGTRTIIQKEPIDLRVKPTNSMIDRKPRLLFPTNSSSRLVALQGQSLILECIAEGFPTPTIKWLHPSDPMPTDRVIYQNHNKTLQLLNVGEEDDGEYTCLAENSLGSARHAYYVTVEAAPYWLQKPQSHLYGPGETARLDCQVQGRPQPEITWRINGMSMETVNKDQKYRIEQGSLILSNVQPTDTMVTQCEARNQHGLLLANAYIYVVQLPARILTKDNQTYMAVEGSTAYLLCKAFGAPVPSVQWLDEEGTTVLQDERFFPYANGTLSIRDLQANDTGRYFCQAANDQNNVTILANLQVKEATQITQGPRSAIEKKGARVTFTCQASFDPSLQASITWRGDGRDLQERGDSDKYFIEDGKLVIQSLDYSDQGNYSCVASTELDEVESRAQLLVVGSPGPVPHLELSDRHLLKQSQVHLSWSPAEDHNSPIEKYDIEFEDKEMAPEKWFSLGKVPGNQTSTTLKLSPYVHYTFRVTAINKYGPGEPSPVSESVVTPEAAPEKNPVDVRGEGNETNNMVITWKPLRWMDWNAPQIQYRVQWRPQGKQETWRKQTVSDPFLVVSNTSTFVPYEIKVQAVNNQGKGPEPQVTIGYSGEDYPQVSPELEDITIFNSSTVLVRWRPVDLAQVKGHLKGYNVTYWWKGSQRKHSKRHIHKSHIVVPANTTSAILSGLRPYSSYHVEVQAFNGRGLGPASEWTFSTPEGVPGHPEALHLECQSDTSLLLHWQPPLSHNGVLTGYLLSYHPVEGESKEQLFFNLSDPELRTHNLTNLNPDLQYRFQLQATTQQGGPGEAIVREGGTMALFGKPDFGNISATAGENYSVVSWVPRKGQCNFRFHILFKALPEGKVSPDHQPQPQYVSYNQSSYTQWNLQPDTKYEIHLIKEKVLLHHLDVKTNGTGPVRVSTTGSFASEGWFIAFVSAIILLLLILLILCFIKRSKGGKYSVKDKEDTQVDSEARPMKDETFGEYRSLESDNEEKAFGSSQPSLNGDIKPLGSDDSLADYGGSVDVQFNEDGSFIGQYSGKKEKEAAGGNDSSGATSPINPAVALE

B1: 14A10: anti-L1CAM mAb from AlivaMab mice (human variable regions, mouse IgG1 Fc); VH SEQ ID NO: 87, VL SEQ ID NO: 88 (antibody, V domains shown)
VH: EVQMVESGGGLVQPGGSLRLSCAAPGFIFSSYNMNWVRQAPGKGLEWVSYISSSSSTTYYADSVKGRFTISRDNAKNSLYLQMNSLRDEDTAVYYCASLYSGYDYYYYYGMDVWGQGTTVTVSS
VL: DIVMTQTPLSSPVSLGQPASISCRSSQSLVHSDGNTYLSWLQQRPGQPPRVLIYKISKRFSGVPDRFSGSGAGTDFTLKISRVEAEDVGVYYCMQATQFPFTFGPGTKVDIK
For B1, the “cross-reactivity with mouse L1CAM” value [1] was “cross-reacted with mouse L1CAM”.

B2: Fab 3: humanized 76H12 Fab variant, preferred; design in Table 86 (antibody, V domains shown)
VH: QVQLVQSGAEVKKPGASVKVSCKASGYTFTSYWMHWVRQAPGQGLEWIGNVYPGSGSTKYAQKFQGRATLTVDTSTSTVYMELSSLRSEDTAVYYCARPGNYEGFAYWGQGTLVTVSS
VL: DIQLTQSPSSLSASVGDRVTITCRASESVDSYGSSFMHWYQQKPGKPPKLLIYLASNLESGVPSRFSGSGSGTDFTLTISSLQPEDFATYYCQQNNEDPWTFGQGTKLEIK
For B2, the “affinity for L1CAM relative to the chimeric Fab (Fab 1)” value [2] was “equivalent or better affinity than the chimeric Fab”.

B3: Fab 5: humanized 76H12 Fab variant; design in Table 86 (antibody, V domains shown)
VH: QVQLVQSGAEVKKPGASVKVSCKASGYTFTSYWMHWVRQAPGQGLEWIGNVYPGSGSTKYAQKFQGRATLTVDTSTSTVYMELSSLRSEDTAVYYCARPGNYEGFAYWGQGTLVTVSS
VL: NIQLTQSPSSLSASVGDRVTITCRASESVDSYGSSFMHWYQQKPGKPPKLLIYLASNLESGVPSRFSGSGSGTDFTLTISSLQPEDFATYYCQQNNEDPWTFGQGTKLEIK
For B3, the “affinity for L1CAM relative to the chimeric Fab (Fab 1)” value [2] was “equivalent or better affinity than the chimeric Fab”.

B4: Fab 4: humanized 76H12 Fab variant; design in Table 86 (antibody, V domains shown)
VH: QVQLVQSGAEVKKPGASVKVSCKASGYTFTSYWMHWVRQAPGQGLEWIGNVYPGSGSTKYAQKFQGRATLTVDTSTSTVYMELSSLRSEDTAVYYCARPGNYEGFAYWGQGTLVTVSS
VL: DIQLTQSPSSLSASVGDRVTITCRASESVDSYGSSFMHWYQQKPGKPPKLLIYLASNLESGVPSRFSGSGSRTDFTLTISSLQPEDFATYYCQQNNEDPWTFGQGTKLEIK
For B4, the “affinity for L1CAM relative to the chimeric Fab (Fab 1)” value [2] was “equivalent or better affinity than the chimeric Fab”.
